Our source for the Kd, koff and kon values is US7329737 (DYAX, dated 2008).

By Kd is commonly meant the free concentration of one partner at which half of the binding sites on the other are occupied at equilibrium, for simple one-to-one binding. One may read the koff as the first-order rate constant of dissociation. For orientation: kon means a measure of how fast the partners come together.

First the molecules themselves.
B1: M0104-B12 (Fab, V domains shown)
VH: EVQLLESGGGLVQPGGSLRLSCAASGFTFSIYAMIWVRQAPGKGLEWVSSIYSSGGPTQYADSVKGRFTISRDNSKNTLYLQMNSLRAEDTAVYYCARGRRTYYYDSSGYYKYAAFDIWGQGTMVTVSS
VL: DIQMTQSPSSLSASVGDRVTITCRASQAISNYLAWYQQQPGKVPKLLISAASTLQSGVPSRFSGSGSGTDFTLSISSLQPEDVATYYCQTYYSVPFTFGPGTKVDFKR
B2: M0136-F08 (Fab, V domains shown)
VH: EVQLLESGGGLVQPGGSLRLSCAASGFTFSHYKMGWVRQAPGKGLEWVSSIRPSGGATKYADSVKGRFTISRDNSKNTLYLQMNSLRAEDTAVYYCARVGIWDAFDIWGQGAMVTVSS
VL: DIQMTQSPGTLSLSPGERATLSCRASQSVSSSYLAWYQQKPGQAPRLLIYDASNRATGIPARFSGSGSGTDFTLTISSLEPEDFAVYYCQQWDTFGQGTKLEIKR
B3: M0110-H11 (Fab, V domains shown)
VH: EVQLLESGGGLVQPGGSLRLSCAASGFTFSHYKMEWVRQAPGKGLEWVSRIRPSGGVTKYADSVKGRFTISRDNSKNTLYLQMNSLRAEDTAVYYCTRGGLWDAFDIWGQGTMVTVSS
VL: DIQMTQSPSSLSASVGDRVTITCRASQSISSYLNWYQQKPGKAPKLLIYAASSLQSGVPSRFSGSGSGTDFTLTISSLHPEDFATYYCQQTYSTLFTFGPGTKVHIKR
B4: M0135-B05 (Fab, V domains shown)
VH: EVQLLESGGGLVQPGGSLRLSCAASGFTFSHYLMDWVRQAPGKGLEWVSVIYPSGGHTNYADSVKGRFTISRDNSKNTLYLQMNSLRAEDTAVYYCARVGVWYGMDVWGQGTTVTVSS
VL: DIQMTQSPSSLSASVGDRVTITCRASQSISTYLNWYQQKPGKAPNLLIYAASSLQSGVPSRFSGSGSGTDFTLTVSSLQPEDFGTYYCQQYNSFPFSFGQGTRLEINR
B5: M0095-A11 (Fab, V domains shown)
VH: EVQLLESGGGLVQPGGSLRLSCAASGFTFSPYMMGWVRQAPGKGLEWVSSIRSSGGATAYADSVKGRFTISRDNSKNTLYLQMNSLRAEDTATYYCARVGVWYGMDVWGQGTTVTVSS
VL: DIQMTQSPATLSLSPGERATLSCRASQSVSSYLAWYQQKPGQAPRLLIYDASNRATGIPARFSGSGSGTDFTLTISSLEPEDFAVYYCQQRSNWPPYTFGQGTKLEIKR
B6: M0130-B02 (Fab, V domains shown)
VH: EVQLLESGGGLVQPGGSLRLSCAASGFTFSNYSMVWVRQAPGKGLEWVSRIYSSGGSTHYADSVKGRFTISRDNSKNTLYLQMNSLRAEDTAVYYCARVGVWYGMDVWGQGTTVTVSS
VL: AQSALTQPASVSGSPGQSITISCTDTSGNVGSYNLVSWYQQHPDKAPKLMIFEVSRRPSGVSDRFSGSKSGNTASLTISGLQAEDEADYYCCSYAGSNTYVFGTGTKVTVLG
B7: M0092-F08 (Fab, V domains shown)
VH: EVQLLESGGGLVQPGGSLRLSCAASGFTFSHYPMIWVRQAPGKGLEWVSGIYSSGGTTKYADSVKGRFTISRDNSKNTLYLQMNSLRAEDTAVYYCARVGVWYGMDVWGQGTTVTVSS
VL: DIQMTQSPATLSLSPGERATLSCGASQSVSSSYLAWYQQKPGLAPRLLIYDASSRATGIPDRFSGSGSGTDFTLTISSLQPEDFATYYCLHDYNFPFTFGPGTKVDIKR
B8: M0121-A07 (Fab, V domains shown)
VH: EVQLLESGGGLVQPGGSLRLSCAASGFTFSHYLMYWVRQAPGKGLEWVSRIYPSGGATSYADSVKGRFTISRDNSKNTLYLQMNSLRAEDTAVYYCAKSGSWYSFDYWGQGTLVTVSS
VL: DIQMTQSPGTLSLSPGERATLSCRASQSVSSNYLAWYQQKPGQAPRLLMYGASYRATGIPDRFSGSGSGTDFTLTISSLQPEDFATYYCQQSYSTPWTFGQGTKVEIKR
B9: M0110-D11 (Fab, V domains shown)
VH: EVQLLESGGGLVQPGGSLRLSCAASGFTFSHYLMYWVRQAPGKGLEWVSRIGPSGGWTKYADSVKGRFTISRDNSKNTLYLQMNSLRAEDTAVYYCARVGVWYGMDVWGQGTTVTVSS
VL: AQSELTQPASVSGSPGQSITISCTGTSTDVGGYNYVSWYQKHPGKAPKLMIYDVSNRPSGVSNRFSGSKSGNTASLTISGLQAEDEADYYCSSYTNTITVVFGGGTKLTVLG
B10: M0135-E10 (Fab, V domains shown)
VH: EVQLLESGGGLVQPGGSLRLSCAASGFTFSWYRMSWVRQAPGKGLEWVSSISPSGGPTKYADSVKGRFTISRDNSKNTLYLQMNSLRAEDTAVYYCARPSGDSSVYRPFASWGQGTLVTVSS
VL: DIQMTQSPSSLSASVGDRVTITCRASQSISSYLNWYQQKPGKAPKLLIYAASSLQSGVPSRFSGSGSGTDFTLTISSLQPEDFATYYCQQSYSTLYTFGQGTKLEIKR
B11: M0126-F11 (Fab, V domains shown)
VH: EVQLLESGGGLVQPGGSLRLSCAASGFTFSHYWMMWVRQAPGKGLEWVSWIGSSGGFTWYADSVKGRFTISRDNSKNTLYLQMNSLRAEDTAVYYCARGNGGFDSWGQGTLVTVSS
VL: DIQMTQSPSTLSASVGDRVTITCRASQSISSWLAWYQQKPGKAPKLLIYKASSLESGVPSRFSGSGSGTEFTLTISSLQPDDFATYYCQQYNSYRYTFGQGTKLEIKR
B12: M0098-H04 (Fab, V domains shown)
VH: EVQLLESGGGLVQPGGSLRLSCAASGFTFSHYVMSWVRQAPGKGLEWVSRIYPSGGQTYYADSVKGRFTISRDNSKNTLYLQMNSLRAEDTAVYYCARGAGWFDPWGQGTLVTVSS
VL: AQSELTQPPSASGSPGQSLTISCTGGRRDIGNYNYVSWYQQHPGKAPRLIIYDVRKRPSGVPDRFSGSKSGNVAFLTVSGLQTDDEADYYCGSYTGTSNVFGSGTTVTVLG
B13: M0128-E07 (Fab, V domains shown)
VH: EVQLLESGGGLVQPGGSLRLSCAASGFTFSFYPMSWVRQAPGKGLEWVSYIWPSGGATRYADSVKGRFTISRDNSKNTLYLQMNSLRAEDTAVYYCARGNGGFDSWGQGTLVTVSS
VL: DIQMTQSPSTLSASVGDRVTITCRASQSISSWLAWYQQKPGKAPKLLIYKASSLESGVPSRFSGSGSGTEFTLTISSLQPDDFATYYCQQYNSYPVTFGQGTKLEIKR
B14: M0131-G03 (Fab, V domains shown)
VH: EVQLLESGGGLVQPGGSLRLSCAASGFTFSHYVMQWVRQAPGKGLEWVSSIYPSGGSTRYADSVKGRFTISRDNSKNTLYLQMNSLRAEDTAMYYCARFNVGFDLWGRGTLVTVSS
VL: AQSELTQPPSASGSPGQSLTISCTGGRRDIGNYNYVSWYQQHPGKAPRLIIYDVRKRPSGVPDRFSGSKSGNVAFLTVSGLQTDDEADYYCGSYTGTSNVFGSGTTVTVLG
B15: M0109-A11 (Fab, V domains shown)
VH: EVQLLESGGGLVQPGGSLRLSCAASGFTFSNYTMTWVRQAPGKGLEWVSVIYPSGGHTTYADSVKGRFTISRDNSKNTLYLQMNSLRAEDTAMYYCARGGRWFSLDYWGQGTLVTVSS
VL: AQSELTQPASVSGSPGQSITISCTGTSSDVGGYNYLSWYQQHPGKAPKLMIYGVSNRPSGVSTRFSGSKSGNTASLTISGLQAEDEADYYCSSYTSTGTRVFGGGTRLTVLG
B16: M0093-C02 (Fab, V domains shown)
VH: EVQLLESGGGLVQPGGSLRLSCAASGFTFSWYAMHWVRQAPGKGLEWVSWISPSGGQTKYADSVKGRFTISRDNSKNTLYLQMNSLRAEDTAVYYCARAKVLRYFDWLLGGDAFDIWGQGTMVTVSS
VL: DIQMTQSPGTLSLSPGDRATLSCRASQSVGSDYLAWYQQKPGQAPRLLIFAASTRATGIPDRFSGSGSATDFTLTISSLEPEDFAVYFCQQYASPPRTFGQGTKVEIKR
B17: M0115-G12 (Fab, V domains shown)
VH: EVQLLESGGGLVQPGGSLRLSCAASGFTFSPYFMEWVRQAPGKGLEWVSGISSSGGNTLYADSVKGRFTISRDNSKNTLYLQMNSLRAEDTAVYYCARDRFGNYYGSGSKLQHDAFDIWGQGTMVTVSS
VL: DIQMTQSPVTLSLSPGDRATLSCRASQSVSFNLAWYQHKPGQAPRLLMFDASNRATGIPDRFSGSGSGTDFTLTIKRLEPEDFAVYYCQQYGTSPFTFGPGTNVDVKR
B18: M0135-C11 (Fab, V domains shown)
VH: EVQLLESGGGLVQPGGSLRLSCAASGFTFSNYSMQWVRQAPGKGLEWVSGIRPSGGSTRYADSVKGRFTISRDNSKNTLYLQMNSLRAEDTAVYYCAVSTGGYYYGMDVWGQGTTVTVSS
VL: DIQMTQSPSSVSASVGDRVTITCRASQGISSWLAWYQQKPGKAPKLLIYAASSLQSGVPSRFSGSGSGTDFTLTISSLQPEDFATYYCQQANSFPSLTFGGGTKVEIKR
B19: M0098-E01 (Fab, V domains shown)
VH: EVQLLESGGGLVQPGGSLRLSCAASGFTFSMYGMTWVRQAPGKGLEWVSGISPSGGRTYYADSVKGRFTISRDNSKNTLYLQMNSLRAEDTAVYYCAKHRRDYVWWTYGMDVWGQGTTVTVSS
VL: DIQMTQSPATLSLSPGERATLSCRASQSVSGFLAWYQQKPGQAPRLLIYDASNRATGIPARFSGSGSGTDFTLTITRLEPEDFAVYYCQQYGDSSPITFGPGTRLEIKR

The assay has as its target T1, hK1 (human tissue kallikrein 1), recombinant (human, UniProt P06870 25-262).
T1 construct: Expressed in P. pastoris from KLK1 cDNA and purified; enzymatically active; also called KLK1; Recombinant (Pichia) Kallikrein
The experiment in a line: SPR. For orientation: Surface plasmon resonance follows binding to a sensor surface in real time, without labels.
Turning to B1, the dissociation constant (Kd) amounted to 7.41 nM, the off-rate constant (koff) turned out to be 0.00171 s⁻¹ and the kon was found to be 230000 M⁻¹ s⁻¹.

Turning to B2, the Kd came to 5.97 nM, the dissociation rate constant (koff) turned out to be 0.00284 s⁻¹ and the kon was found to be 476000 M⁻¹ s⁻¹.

On to B3, for which the dissociation constant Kd is 6.17 nM, the dissociation rate constant (koff) stood at 0.00601 s⁻¹ and the on-rate (kon) was determined as 975000 M⁻¹ s⁻¹.

For B4, the Kd is 5.9 nM, the koff came out at 0.000655 s⁻¹ and the on-rate (kon) was 111000 M⁻¹ s⁻¹.

Consider B5, for which the Kd is 7.22 nM, the koff was 0.00379 s⁻¹ and the kon amounted to 525000 M⁻¹ s⁻¹.

With B6, the Kd is 7.8 nM, the koff worked out at 0.00307 s⁻¹ and the association rate constant (kon) worked out at 394000 M⁻¹ s⁻¹.

Turning to B7, the Kd worked out at 7.27 nM, the koff was 0.00158 s⁻¹ and the on-rate (kon) worked out at 218000 M⁻¹ s⁻¹.

For B8, the Kd came out at 4.75 nM, the off-rate constant (koff) was 0.00438 s⁻¹ and the kon was 922000 M⁻¹ s⁻¹.

For B9, the dissociation constant (Kd) turned out to be 6.38 nM, the koff is 0.00134 s⁻¹ and the kon was determined as 210000 M⁻¹ s⁻¹.

In the case of B10, the dissociation constant (Kd) amounted to 7.57 nM, the koff was 0.00206 s⁻¹ and the kon is 272000 M⁻¹ s⁻¹.

With B11, the Kd was 5.05 nM, the koff was 0.00144 s⁻¹ and the kon worked out at 285000 M⁻¹ s⁻¹.

For the molecule B12, the Kd turned out to be 5.53 nM, the koff is 0.00255 s⁻¹ and the association rate constant (kon) came to 461000 M⁻¹ s⁻¹.

Consider B13, for which the dissociation constant Kd worked out at 30.4 nM, the dissociation rate constant (koff) came out at 0.0147 s⁻¹ and the on-rate (kon) was determined as 483000 M⁻¹ s⁻¹.

As to B14, the dissociation constant Kd stood at 7.49 nM, the off-rate constant (koff) was determined as 0.00256 s⁻¹ and the on-rate constant (kon) came out at 341000 M⁻¹ s⁻¹.

For the molecule B15, the Kd was found to be 7.45 nM, the koff was found to be 0.0035 s⁻¹ and the association rate constant (kon) came to 470000 M⁻¹ s⁻¹.

B16: the Kd is 5.72 nM, the dissociation rate constant (koff) amounted to 0.00103 s⁻¹ and the kon turned out to be 180000 M⁻¹ s⁻¹.

In the case of B17, the Kd amounted to 5.73 nM, the koff is 0.000865 s⁻¹ and the on-rate constant (kon) was determined as 151000 M⁻¹ s⁻¹.

For the molecule B18, the Kd was determined as 6.85 nM, the dissociation rate constant (koff) is 0.00231 s⁻¹ and the association rate constant (kon) worked out at 337000 M⁻¹ s⁻¹.

As for B19, the Kd stood at 6.8 nM, the koff worked out at 0.00101 s⁻¹ and the kon came out at 148000 M⁻¹ s⁻¹.
